Measurements reported in publication PMC7279889, “FMRP promotes RNA localization to neuronal projections through interactions between its RGG domain and G-quadruplex RNA sequences”.

Key:
[1] = target: FMRP KH domains (two KH domains) (Mus musculus, UniProt P35922 222-315); experiment: fluorescence polarization; binding never detected; method and salt implied; FP: 10 mM Tris-HCl (pH not stated), 150 mM KCl or LiCl, 5% glycerol, 10 nM RNA, protein 2 nM-1 uM, 5 min at 25 C, read at 26-27 C; settings: protein: recombinant; tags: GST-SBP (N-terminal, pGEX6); label: 3' 6-FAM; G4 intramolecular (folded in KCl)
FMRP RGG domain = FMRP RGG domain (Mus musculus, UniProt P35922 478-614); experiment: fluorescence polarization; 150 mM KCl; FP: 10 mM Tris-HCl (pH not stated), 150 mM KCl or LiCl, 5% glycerol, 10 nM RNA, protein 2 nM-1 uM, 5 min at 25 C, read at 26-27 C; settings: protein: recombinant; tags: GST-SBP (N-terminal, pGEX6); label: 3' 6-FAM; G4 intramolecular (folded in KCl)

GGGAGGGAGGGAGGGUA (structured_RNA) [rG4] was tested, and the binding result [1] was “no binding” and the Kd (FMRP RGG domain) was about 0.03 µM.
